Results reported in publication PMC7672466, “Biophysical analysis of Pseudomonas-phage PaP3 small terminase suggests a mechanism for sequence-specific DNA-binding by lateral interdigitation”.

B1: Cy3-cos (dsDNA)
DNA 1: GCCGGCCCCTTTCCGCGTTA
DNA 2: TAACGCGGAAAGGGGCCGGC
B2: Cy3-scr (dsDNA)
DNA 1: GCACTGCAGTAACTTGTCAGTCAT
DNA 2: ATGACTGACAAGTTACTGCAGTGC

Tests used:
PaP3 ΔC122-TerS [1] = target: T1, PaP3 ΔC122-TerS (Pseudomonas phage PaP3, UniProt Q8H9R5 1-121, del122-152); experiment: EMSA; 0.15 uM cos DNA on agarose, also 4-16% acrylamide; comparable to WT; EMSA: incubation 37 C 30 min (binding buffer not stated; proteins in GF buffer 20 mM Tris-HCl pH 7.5, 150 mM NaCl, 5 mM bME, 2.5% glycerol); 1% agarose or 4-16% acrylamide gel, 0.5x TBE, 4 C; conditions: protein: recombinant; tags: GST removed by PreScission protease; chain copies: 9; label: 5' Cy3 on both strands; blunt
T1 sequence: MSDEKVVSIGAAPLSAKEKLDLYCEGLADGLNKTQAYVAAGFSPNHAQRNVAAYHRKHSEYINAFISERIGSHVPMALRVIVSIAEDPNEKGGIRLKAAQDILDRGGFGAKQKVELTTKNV

PaP3 ΔC122-TerS [2] = target: T1, PaP3 ΔC122-TerS; experiment: EMSA; 4-16% acrylamide; stronger than WT on scr; EMSA: incubation 37 C 30 min (binding buffer not stated; proteins in GF buffer 20 mM Tris-HCl pH 7.5, 150 mM NaCl, 5 mM bME, 2.5% glycerol); 1% agarose or 4-16% acrylamide gel, 0.5x TBE, 4 C; conditions: protein: recombinant; tags: GST removed by PreScission protease; chain copies: 9; label: 5' Cy3; blunt

Row | Binder | binding result (PaP3 ΔC122-TerS [1]) | binding result (PaP3 ΔC122-TerS [2])
1 | B1 | binds | 
2 | B2 |  | binds
